According to US12060433B2, “CD73 inhibitor and A2A/A2B adenosine receptor inhibitor combination therapy” (Incyte Corporation, priority 2020, dated 2024):

Tests used:
[1] = system: cynomolgus CD73 (SEQ ID NO: 72); assay: SPR (Biacore 8K) binding affinity and kinetics to cynomolgus CD73
Description: The SPR running buffer (10 mM HEPES, 150 mM NaCl, 3 mM EDTA and 0.05% v/v Surfactant P20, pH 7.4) was prepared from 10×HBS-EP Buffer (GE Healthcare). Anti-human Fc antibodies (GE Healthcare) were immobilized via amine coupling on all sixteen flow cells of an S series sensor chip CM5 (GE Healthcare). The immobilization levels were ˜9000 RU for all flow cells. The desired capturing level of anti-CD73 antibody was achieved by flowing appropriate concentration of anti-CD73 antibody through the active flow cell of each channel. The non-cleavable ADP analogue APCP (adenosine-5′-(α,β-methylene) diphosphate) with the presence of Zn^2+ can be used to shift the CD73 conformational equilibrium from open towards closed. Therefore, recombinant CD73 was incubated with SPR running buffer in the presence of 100 μM APCP and 10 μM ZnCl2 (closed SPR running buffer) to study the binding of anti-CD73 antibody to the CD73 in the closed conformation. To achieve this, the ABA injection feature in Biacore 8K was used. For open conformation, the ABA injection sequence started with 60 seconds injection of running buffer. Then, CD73 3-fold serial dilution concentration series prepared from CD73 stock (BPS Bioscience) and running buffer were injected for 180 seconds immediately followed by running buffer for 240 seconds. For closed conformation, the normal SPR running buffer was replaced by closed SPR running buffer. Surface was regenerated with 30 seconds injection of 3 M MgCl2. […] Binding affinities and kinetic association and dissociation rate constants to human, cynomolgus, and mouse CD73 in either open or closed conformations are shown in Table 8 below. The results in Table 8 ensure cynomolgus pharmacokinetic data will reflect human pharmacokinetic data.
Binding affinities and kinetic association and dissociation rate constants to human, cynomolgus, and mouse CD73 in either open or closed conformations are shown in Table 9 below.

[2] = biological target: T1, cell surface CD73 on A375 cells (Homo sapiens, UniProt P21589); assay: Binding to cell surface CD73 by flow cytometry (GMFI), A375 cells; assay type: cell-based; details: moderate levels of surface CD73
T1 construct: endogenous in cells; host or cells: A375
T1 sequence (P21589 27-549): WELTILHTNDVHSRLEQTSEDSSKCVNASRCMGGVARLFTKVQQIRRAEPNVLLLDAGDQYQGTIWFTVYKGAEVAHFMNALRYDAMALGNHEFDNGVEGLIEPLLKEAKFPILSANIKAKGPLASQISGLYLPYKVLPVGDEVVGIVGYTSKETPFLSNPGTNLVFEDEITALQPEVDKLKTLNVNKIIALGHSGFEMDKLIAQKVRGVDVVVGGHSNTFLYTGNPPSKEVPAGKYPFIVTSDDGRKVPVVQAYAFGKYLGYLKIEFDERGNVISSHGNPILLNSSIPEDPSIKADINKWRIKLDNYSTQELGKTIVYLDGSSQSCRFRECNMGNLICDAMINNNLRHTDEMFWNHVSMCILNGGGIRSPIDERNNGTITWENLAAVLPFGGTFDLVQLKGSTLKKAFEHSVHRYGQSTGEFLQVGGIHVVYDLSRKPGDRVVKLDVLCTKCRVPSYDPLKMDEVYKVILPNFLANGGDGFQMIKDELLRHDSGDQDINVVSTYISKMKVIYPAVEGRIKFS
Description: To test the binding of humanized and non-humanized CL25 clones to cell surface CD73, MDA-MB-231 or A375 cells were washed and added to 96-well plates at 5×10^4 cells/well. The cells were stained with the indicated concentration of antibodies for 30 minutes on ice (FIG. 2A and FIG. 2B). Next, the cells were washed and stained using goat anti-mouse secondary conjugated to phycoerythrin (PE) for 30 minutes on ice. The cells were then washed and analyzed by flow cytometry. Geometric mean fluorescence intensity (GMFI) of CD73 staining was graphed (FIG. 2A and FIG. 2B).

[3] = biological target: T2, cellular CD73 on A375 cells (Homo sapiens, UniProt P21589); assay: Cellular CD73 inhibition (AMP-Glo), A375 cells; assay type: cell-based; details: 100 μM AMP, 3 hours
T2 construct: endogenous in cells; host or cells: A375
T2 sequence (P21589 27-549): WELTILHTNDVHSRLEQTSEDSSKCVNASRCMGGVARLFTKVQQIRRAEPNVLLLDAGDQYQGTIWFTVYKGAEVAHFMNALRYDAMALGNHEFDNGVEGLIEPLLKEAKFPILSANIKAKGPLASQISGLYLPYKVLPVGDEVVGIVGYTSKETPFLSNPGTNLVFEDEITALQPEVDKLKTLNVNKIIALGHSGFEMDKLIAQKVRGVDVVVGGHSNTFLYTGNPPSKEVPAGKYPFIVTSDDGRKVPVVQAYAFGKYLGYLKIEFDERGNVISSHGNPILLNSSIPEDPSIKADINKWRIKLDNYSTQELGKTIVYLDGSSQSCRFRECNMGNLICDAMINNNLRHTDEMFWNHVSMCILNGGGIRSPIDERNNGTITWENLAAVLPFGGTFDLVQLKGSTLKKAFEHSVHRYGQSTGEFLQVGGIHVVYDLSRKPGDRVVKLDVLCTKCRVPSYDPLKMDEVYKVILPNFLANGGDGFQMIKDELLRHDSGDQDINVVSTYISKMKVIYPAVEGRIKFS
Description: To measure ability of anti-CD73 antibody to inhibit CD73 activity on cells, A375 and MDA-MB-231 cells were washed with serum free RPMI media (ThermoFisher) and plated in 96-well plates at a concentration of 8×10^4 cells/well for A375 or 1×10^4 cells/well for MDA-MB-231. The cells were incubated with the indicated concentration of antibodies or APCP at 37° C. 5% C02 for 30 minutes (FIG. 3A, FIG. 3B, and FIG. 3C). Next, adenosine monophosphate (AMP) was added to a final concentration of 100 μM and cells were incubated an additional 3 hours at 37° C. 5% CO2. Plates were centrifuged for 1-2 minutes at 300 g and 25 μL of supernatant was transferred into a new 96-well plates. AMP-Glo Assay was used according to the manufacturer's instructions (Promega). Relative luminescence unit (RLU) is directly correlated with the AMP concentration in this assay. Results are depicted in FIG. 3A, FIG. 3B, and FIG. 3C. The ability of 3-[…] to inhibit CD73 activity on cells was evaluated as described in Example 3, above. Results are depicted in FIG. 8A and FIG. 8B.

[4] = biological target: T3, recombinant human CD73 (rhuCD73) (SEQ ID NO:70) (Homo sapiens, UniProt P21589); assay: Soluble CD73 inhibition (AMP-Glo); assay type: biochemical; details: 0.008 μg/mL rhuCD73, 100 μM AMP
T3 sequence (P21589 27-549): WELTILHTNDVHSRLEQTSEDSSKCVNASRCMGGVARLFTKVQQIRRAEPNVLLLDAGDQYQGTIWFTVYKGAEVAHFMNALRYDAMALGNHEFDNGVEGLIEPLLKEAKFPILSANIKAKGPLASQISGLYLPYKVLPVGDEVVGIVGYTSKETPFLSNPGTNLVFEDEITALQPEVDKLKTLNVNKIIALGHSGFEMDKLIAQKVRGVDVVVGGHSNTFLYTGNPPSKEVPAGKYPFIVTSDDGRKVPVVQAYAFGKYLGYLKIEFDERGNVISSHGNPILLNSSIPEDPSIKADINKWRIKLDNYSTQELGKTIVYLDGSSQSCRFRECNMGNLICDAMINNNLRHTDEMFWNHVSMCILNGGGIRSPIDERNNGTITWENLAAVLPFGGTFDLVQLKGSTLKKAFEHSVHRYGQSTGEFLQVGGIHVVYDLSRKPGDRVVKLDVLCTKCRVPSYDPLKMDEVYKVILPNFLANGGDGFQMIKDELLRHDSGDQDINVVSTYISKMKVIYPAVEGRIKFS
Description: To measure the ability of the CD73 antibodies to inhibit CD73 activity of recombinant protein, recombinant human CD73 (rhuCD73) (SEQ ID NO:70) was added to 96-well plates at a final concentration of 0.008 μg/mL with the indicated concentration of antibodies (FIG. 4) or adenosine 5′-[α,β-methylene]diphosphate (APCP) and incubated at 37° C. 5% CO2 for 30 minutes. After the 30 minute incubation, AMP was added to a final concentration of 100 μM and the reactions were incubated an additional 3 hours at 37° C. 5% CO2. 25 μL of supernatant was transferred into new 96-well plates. The AMP-Glo Assay was used according to the manufacturer's instructions. RLU is a directly correlated with the AMP concentration in this assay. Results are depicted in FIG. 4.
Results are depicted in FIG. 9.

[5] = biological target: T4, CD73 on the cell surface of MDA-MB-231 cells (Homo sapiens, UniProt P21589); assay: CD73 cell surface levels after 24 hour antibody treatment; assay type: cell-based; details: 10 μg/mL antibody
T4 construct: endogenous in cells; host or cells: MDA-MB-231
T4 sequence (P21589 27-549): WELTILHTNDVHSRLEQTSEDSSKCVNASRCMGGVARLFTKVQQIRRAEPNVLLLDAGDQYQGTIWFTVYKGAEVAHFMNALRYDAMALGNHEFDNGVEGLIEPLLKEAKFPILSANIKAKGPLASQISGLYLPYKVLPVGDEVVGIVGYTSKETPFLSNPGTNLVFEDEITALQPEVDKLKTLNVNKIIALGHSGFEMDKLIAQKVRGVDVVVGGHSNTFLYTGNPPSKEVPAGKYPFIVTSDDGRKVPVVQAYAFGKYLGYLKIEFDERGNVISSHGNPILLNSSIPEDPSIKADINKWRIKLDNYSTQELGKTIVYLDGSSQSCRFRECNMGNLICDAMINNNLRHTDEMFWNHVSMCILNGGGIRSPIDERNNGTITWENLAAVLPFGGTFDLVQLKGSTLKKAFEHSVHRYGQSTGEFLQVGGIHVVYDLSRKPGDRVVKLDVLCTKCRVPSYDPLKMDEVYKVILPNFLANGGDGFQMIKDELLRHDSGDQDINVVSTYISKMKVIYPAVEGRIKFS
Description: Indicated antibodies were added at a final concentration of 10 μg/mL and plates were incubated at 37° C. 5% CO2 for 24 hours. Cells were recovered using Versene and transferred to new 96-well plates. Cells were washed and stained for 30 minutes on ice with 10 μg/mL of non-competing antibody directly conjugated to Dy650. Cells were washed and analyzed by flow cytometry. CD73 cell surface receptor density was determined by Antibody Binding Capacity (ABC) using Quantum Simply Cellular beads.

[6] = cynomolgus CD73, closed conformation

Chain of cynomolgus CD73 (SEQ ID NO: 72) (as listed by the source): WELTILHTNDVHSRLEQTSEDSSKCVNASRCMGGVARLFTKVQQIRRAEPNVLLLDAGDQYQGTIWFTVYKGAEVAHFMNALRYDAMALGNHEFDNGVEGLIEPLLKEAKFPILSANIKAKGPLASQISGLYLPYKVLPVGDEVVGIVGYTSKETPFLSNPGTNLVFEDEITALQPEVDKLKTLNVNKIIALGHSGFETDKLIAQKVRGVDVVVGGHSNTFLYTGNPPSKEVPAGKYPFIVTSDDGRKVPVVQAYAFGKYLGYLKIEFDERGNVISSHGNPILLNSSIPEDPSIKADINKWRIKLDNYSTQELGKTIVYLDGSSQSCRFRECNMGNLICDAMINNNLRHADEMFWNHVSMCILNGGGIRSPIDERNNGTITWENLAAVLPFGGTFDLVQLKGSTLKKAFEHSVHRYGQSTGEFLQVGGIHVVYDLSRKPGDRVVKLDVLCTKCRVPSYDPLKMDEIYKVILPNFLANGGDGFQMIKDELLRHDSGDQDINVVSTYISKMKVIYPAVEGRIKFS

B1: CL25: chimeric anti-human CD73 monoclonal antibody, murine VH SEQ ID NO:26 and VL SEQ ID NO:27 with human IgG1 Fc (antibody, V domains shown)
VH: QVQLQQSGAELARPGASVKLSCRASGYTFTSYGLSWVKQRTGQGLEWIGEIYPGSGNTYYNEKFKGKATLTADKSSSTAYMELRSLTSEDSAVYFCARYDYLGSSYGFDYWGQGTTLTVSS
VL: DIVMTQSHKFMSTSVGDRVSITCKASQDVSTAVAWYQQKPGQSPKLLIYSASYRYNGVPDRFTGSGSGTDFTFTISSVQAEDLAVYYCQQHYNTPYTFGGGTKLEIK
modifications: human IgG1 Fc constant regions without entry
ka [1, 6]: 936000 M⁻¹ s⁻¹ | kd [1, 6]: 0.000495 s⁻¹ | kd ([1]; cynomolgus CD73, open conformation): 0.000658 s⁻¹ | cell binding (GMFI) [2]: high potency binding | cellular CD73 inhibition [3]: good potency | hook-effect in inhibition of recombinant CD73 [4]: no hook-effect | inhibition of recombinant CD73 [4]: high potency | level of CD73 on the cell surface [5]: decreased the levels of cell surface CD73
